In patent US20230051715A1 (MABWELL THERAPEUTICS, published 2023) one finds Kd, koff and kon data, which are given here for one molecule.

The target in experiment [1] is T1, full-length human C1s (produced in house) (human, UniProt P09871 16-688).
T1 construct: Called full-length; Partly auto-cleaved at R422-I423 on blots; also called HuC1s; Hu C1s
T1 sequence: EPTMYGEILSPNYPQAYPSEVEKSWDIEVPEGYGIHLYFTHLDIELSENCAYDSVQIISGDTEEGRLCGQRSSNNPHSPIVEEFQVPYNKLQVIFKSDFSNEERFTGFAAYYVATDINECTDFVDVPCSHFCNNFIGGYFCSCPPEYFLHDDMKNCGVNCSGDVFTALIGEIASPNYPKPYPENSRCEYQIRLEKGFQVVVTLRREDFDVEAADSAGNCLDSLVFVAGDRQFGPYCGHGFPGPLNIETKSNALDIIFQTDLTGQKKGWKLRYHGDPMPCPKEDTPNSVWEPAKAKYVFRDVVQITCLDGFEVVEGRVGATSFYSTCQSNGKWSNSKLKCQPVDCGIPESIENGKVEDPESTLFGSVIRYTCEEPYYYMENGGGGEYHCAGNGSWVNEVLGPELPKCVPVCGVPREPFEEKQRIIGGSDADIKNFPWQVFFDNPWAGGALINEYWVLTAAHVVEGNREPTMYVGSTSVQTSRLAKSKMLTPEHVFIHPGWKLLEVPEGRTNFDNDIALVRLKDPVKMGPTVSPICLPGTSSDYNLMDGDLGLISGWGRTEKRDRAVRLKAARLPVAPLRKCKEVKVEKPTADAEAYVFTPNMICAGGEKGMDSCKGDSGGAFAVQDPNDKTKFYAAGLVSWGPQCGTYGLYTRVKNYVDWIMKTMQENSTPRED
Kind of experiment: BLI (Octet RED96e), antibody on AHC biosensor; C1s Species: Human; R^2 0.9983. From the text:
(§1) At last, analyte was dissociated in 1×KB for 360 sec. Data analysis was done using OCTET® Data Analysis HT Software (Sartorius AG).

For experiment [2], the target named is T2, human C1s proenzyme (CompTech A103) (human, UniProt P09871 16-688).
T2 construct: also called proenzyme human C1s (native C1s)
T2 sequence (looked up): T1 sequence
Kind of experiment: BLI (Octet RED96e), antibody on AHC biosensor; HuC1s Form: Proenzyme; R^2 0.9994. How it is done:
(§2) Bio-Layer Interferometry technology was used for anti-C1s antibody affinity measurement and binding kinetics determinations with OCTET® RED96e system (Sartorius AG). Pre-hydrated Anti-Human IgG Fc Capture (AHC) biosensors were first equilibrated in 1×KB (Kinetic Buffer, 1×PBS pH 7.4+0.02% Tween-20+0.1% BSA) for 120 sec for the first baseline, followed by loading with […] anti-C1s antibody (2-7, FIG. 3A; 2-8, FIG. 3B; hz2-7(H1L2), FIG. 3C; hz2-8(H1L2 G80A/T82A, FIG. 3D) onto AHC biosensors for 240 sec. Then, the second baseline signal was established for 120 sec before association with various concentrations of active human C1s (CompTech A104) for 240-360 sec. At last, analyte was dissociated in 1×KB for 360 sec. Anti-C1s antibodies 2-7 and 2-8 were also analyzed against human C1s proenzyme (CompTech A103) (data not shown). Data analysis was carried out using OCTET® Data Analysis HT Software (Sartorius AG). KD, kₒₙ, koff and R² values were calculated for each antibody and target combination, as summarized in FIG. 3E showing high affinity binding with KD values in the low nanomolar to picomolar range.
On the technique in general: In BLI a coated tip is dipped into the sample, and binding shifts an interference pattern.

In experiment [3] the target is T3, cynomolgus monkey C1s (produced in house) (cynomolgus monkey, UniProt P09871 16-685 (human entry), limits assumed).
T3 construct: also called CyC1s
T3 chain: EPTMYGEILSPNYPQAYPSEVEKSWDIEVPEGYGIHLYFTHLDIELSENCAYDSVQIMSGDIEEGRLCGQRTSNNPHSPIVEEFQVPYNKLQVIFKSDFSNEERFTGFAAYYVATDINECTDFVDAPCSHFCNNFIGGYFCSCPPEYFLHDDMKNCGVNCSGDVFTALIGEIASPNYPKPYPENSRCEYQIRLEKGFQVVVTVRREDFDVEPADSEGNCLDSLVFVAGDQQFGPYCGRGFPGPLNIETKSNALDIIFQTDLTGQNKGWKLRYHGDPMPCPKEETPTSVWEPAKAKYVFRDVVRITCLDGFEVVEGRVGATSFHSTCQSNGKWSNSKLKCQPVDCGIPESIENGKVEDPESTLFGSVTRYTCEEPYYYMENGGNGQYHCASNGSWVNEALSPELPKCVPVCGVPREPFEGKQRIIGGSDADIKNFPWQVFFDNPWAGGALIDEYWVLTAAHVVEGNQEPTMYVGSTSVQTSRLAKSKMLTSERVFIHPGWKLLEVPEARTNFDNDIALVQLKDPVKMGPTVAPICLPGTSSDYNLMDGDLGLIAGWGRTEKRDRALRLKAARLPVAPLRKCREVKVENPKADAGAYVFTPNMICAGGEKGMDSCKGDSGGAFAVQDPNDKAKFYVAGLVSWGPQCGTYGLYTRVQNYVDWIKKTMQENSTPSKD
In words: BLI (Octet RED96e), antibody on AHC biosensor; C1s Species: Cyno Monkey; R^2 0.9999.
Text: as §1

The target of experiment [4] is T4, active human C1s (CompTech A104 C1s Enzyme) (human, UniProt P09871 16-688).
T4 construct: also called human active C1s; active C1s protein
T4 sequence (looked up): T1 sequence
In words: BLI (Octet RED96e), antibody on AHC biosensor; HuC1s Form: Active; R^2 0.9994. The protocol: as §2

B1: Anti-C1s antibody 2-7 (antibody, human IgG1, kappa, V domains shown)
VH: EVKLEESGGGLVPPGGSMKLSCVASGFTFSNYFMNWVRQSPEKGLEWVAEIRLKFTNYATHYAESVEGRFTISRDDSKSSVYLQMNNLRAEDTGIYYCTRDYGSRNGYFDYWGQGTTLTVSS
VL: DIVMTQAAPSVPVTPGESVSISCRSSKSLLHSNGNTFLYWFLQRPGQSPQLLIYRMSNLASGVPDRFSGSGSGTAFTLRVSRVEAEDVGIYYCMQHLEYPYTFGGGTKLEIKT
notes: the HC/LC entries may hold it too; also called clone 2-7
As usually defined, the Kd is a measure of binding affinity in units of concentration. By koff is commonly meant a measure of how fast the partners let go of each other. As usually defined, the kon is the rate constant with which the complex forms. With B1, the Kd in experiment [1] was 0.012 nM; in experiment [2] it was 0.14 nM; in experiment [3], 0.23 nM; in experiment [4] it was 0.14 nM. The koff turned out to be 3.9e-05 s⁻¹ in experiment [1], 4.8e-05 s⁻¹ in experiment [2], 6.5e-05 s⁻¹ in experiment [3] and 4.8e-05 s⁻¹ in experiment [4]. Also, the kon in experiment [1] stood at 3.2e+06 M⁻¹ s⁻¹; in experiment [2], 350000 M⁻¹ s⁻¹; in experiment [3], 280000 M⁻¹ s⁻¹; in experiment [4], 350000 M⁻¹ s⁻¹.
